B1: Poly [ADP-ribose] polymerase 1 (Mus musculus), P11103 (parent)
chain: MAEASERLYRVQYAKSGRASCKKCSESIPKDSLRMAIMVQSPMFDGKVPHWYHFSCFWKVGQSIRHPDVEVDGFSELRWDDQQKVKKTAEAGGVAGKGQDGSGGKAEKTLGDFAAEYAKSNRSMCKGCLEKIEKGQMRLSKKMVDPEKPQLGMIDRWYHPTCFVKKRDELGFRPEYSASQLKGFSLLSAEDKEALKKQLPAIKNEGKRKGDEVDGTDEVAKKKSRKETDKYSKLEKALKAQNELIWNIKDELKKACSTNDLKELLIFNQQQVPSGESAILDRVADGMAFGALLPCKECSGQLVFKSDAYYCTGDVTAWTKCMVKTQNPSRKEWVTPKEFREISYLKKLKVKKQDRIFPPESSAPITVHWPLSVTSAPTAVNSSAPADKPLSNMKILTLGKLSQNKDEAKAVIEKLGGKLTGSANKASLCISIKKEVEKMNKKMEEVKEANIRVVSEDFLQDVSASTKSLQDLLSAHSLSPWGAEVKAEPGEVVAPRGKSAAPSKKSKGCFKEEGVNKSEKRMKLTLKGGAAVDPDSGLEHSAHVLEKGGKVFSATLGLVDIVKGTNSYYKLQLLEDDKESRYWIFRSWGRLGTVIGSNKLEQMPSKEEAVEQFMKLYEEKTGNAWHSKNFTKYPKKFYPLEIDYGQDEEAVKKLTVKPGTKSKLPKPVQELVGMIFDVDSMKKALVEYEIDLQKMPLGKLSRRQIQAAYSILSEVQQPVSQGSSESQILDLSNRFYTLIPHDFGMKKPPLLNNADSVQAKVEMLDNLLDIEVAYSLLRGGSDDSSKDPIDVNYEKLKTDIKVVDRDSEEAEVIRKYVKNTHATTHNAYDLEVIDIFKIEREGESQRYKPFRQLHNRRLLWHGSRTTNFAGILSQGLRIAPPEAPVTGYMFGKGIYFADMVSKSANYCHTSQGDPIGLIMLGEVALGNMYELKHASHISKLPKGKHSVKGLGKTTPDPSASITLEGVEVPLGTGIPSGVNDTALLYNEYIVYDIAQVNLKYLLKLKFNFKTSLW
partner: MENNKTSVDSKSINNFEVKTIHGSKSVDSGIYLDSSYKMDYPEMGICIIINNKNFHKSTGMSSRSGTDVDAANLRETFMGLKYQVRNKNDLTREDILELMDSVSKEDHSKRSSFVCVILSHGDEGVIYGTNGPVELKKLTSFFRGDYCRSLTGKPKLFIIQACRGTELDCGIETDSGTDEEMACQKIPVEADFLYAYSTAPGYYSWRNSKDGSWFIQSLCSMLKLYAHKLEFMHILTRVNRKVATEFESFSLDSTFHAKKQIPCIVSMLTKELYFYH

Variants of: B1
Conditions: with casp3_mouse Casp3, P70677

Question: With G210K as the variant, how does the “effect of a mutation on the interaction” value read?
Answer: decreasing interaction
